Test results taken from the supplement of paper PMC11196671.

Tests used:
[1] = PET hydrolysis product formed (TPA+MHET+BHET, UV-Vis) per mg enzyme (mmol/mg enzyme); higher = more PET depolymerisation activity; extreme values may be limits of the assay; conditions: 24 h
Procedure: (§1)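 Purified PET hydrolases, 2.5 ug enzyme on 3.5 mg amorphous PET film (aFilm) or crystalline PET powder (cryPow) in 0.5 mL of 50 mM buffer (NaCitrate pH 4.5/5.5, NaPhosphate 6.5/7.5, glycine 8.5/9.5) at 60 or 70 C with shaking for 24 h. Total aromatic product by UV-Vis (260/280 nm, blank-subtracted, normalised per mg enzyme) and individual TPA, MHET, BHET concentrations by UHPLC-DAD at 240 nm; duplicate reactions.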

[2] = as above; conditions: 2 h
Procedure: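 Purified PET hydrolases (His-SUMO cleaved, E. coli C41(DE3) small-scale expression), 2.5 ug enzyme on 3.5 mg amorphous PET film (aFilm) or crystalline PET powder (cryPow) in 0.5 mL of 50 mM buffer (NaCitrate pH 4.5/5.5, NaPhosphate 6.5/7.5, glycine 8.5/9.5) at 60 or 70 C with shaking for 2 h. Soluble aromatic products (TPA+MHET+BHET) were quantified by UV-Vis at 260/280 nm, blank-subtracted against the no-enzyme control, and normalised per mg enzyme; duplicate reactions.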

[3] = terephthalic acid (TPA) released, HPLC; higher = more TPA released; extreme values may be limits of the assay; conditions: 24 h
Procedure: as §1

[4] = BHET released, HPLC; higher = more BHET released; extreme values may be limits of the assay; conditions: 24 h
Procedure: as §1

SNPYQRGPNPTRSALTADGPFSVATYTVSRLSVSGFGGGVIYYPTGTSLTFGGIAMSPGYTADASSLAWLGRRLASHGFVVLVINTNSRFDGPDSRASQLSAALNYLRTSDPSAVRARLDANRLAVAGHSMGGGATLRIAEQNPSLKAAIPLTPWHTQKTFNTSVPVLIVGAEADTVAPVSQHAIPFYQNLPSTTPKVYVELCNASHIAPNSNNAAISVYTISWMKLWVDNDTRYRQFLCNVNDPALCDFRTNNRHCQ [LCC-ICCG DAQI]
Conditions	BHET released, [4] [mM]	PET hydrolysis product formed, [1]	PET hydrolysis product formed, [2]	terephthalic acid, [3] [mM]
PET substrate: aFilm, 60 °C, pH 4.5	0	0.0166	0	0.0488
PET substrate: aFilm, 60 °C, pH 5.5	0.0132	0.125	0.02083	0.279
PET substrate: aFilm, 60 °C, pH 6.5	0	0.232	0.0428	0.541
PET substrate: aFilm, 60 °C, pH 7.5	0.0548	1.37	0.0608	3.26
PET substrate: aFilm, 60 °C, pH 8.5	0.00252	0.167	0.0525	0.517
PET substrate: aFilm, 60 °C, pH 9.5	0.0577	0.87	0.0903	1.99
PET substrate: aFilm, 70 °C, pH 4.5	0	0	0	0
PET substrate: aFilm, 70 °C, pH 5.5	0.0149	0.0923	0.0394	0.1646
PET substrate: aFilm, 70 °C, pH 6.5	0.00777	0.205	0.0829	0.296
PET substrate: aFilm, 70 °C, pH 7.5	0.143	2.08	0.189	2.26
PET substrate: aFilm, 70 °C, pH 8.5	0	0.1	0.0593	0.205
PET substrate: aFilm, 70 °C, pH 9.5	0	0.859	0.241	1.45
PET substrate: cryPow, 60 °C, pH 4.5	0	0.0113	0	0.0214
PET substrate: cryPow, 60 °C, pH 5.5	0.00665	0.0632	0.0387	0.0856
PET substrate: cryPow, 60 °C, pH 6.5	0	0.0902	0.0449	0.0997
PET substrate: cryPow, 60 °C, pH 7.5	0	0.173	0.0986	0.216
PET substrate: cryPow, 60 °C, pH 8.5	0	0.0738	0.0373	0.103
PET substrate: cryPow, 60 °C, pH 9.5	0	0.1163	0.0245	0.441
PET substrate: cryPow, 70 °C, pH 4.5	0	0	0	0
PET substrate: cryPow, 70 °C, pH 5.5	0	0.0244	0.0166	0.04158
PET substrate: cryPow, 70 °C, pH 6.5	0.00289	0.0648	0.0286	0.0736
PET substrate: cryPow, 70 °C, pH 7.5	0	0.193	0.0606	0.401
PET substrate: cryPow, 70 °C, pH 8.5	0	0.0669	0.0323	0.0916
PET substrate: cryPow, 70 °C, pH 9.5	0	0.132	0.0462	0.659

SNPYQRGPNPTRSALTATGPFSVATYTVSRLLVSGFGGGVIYYPTGTSLTFGGIAMSPGYTADASSLAWLGRRLASHGFVVLVINTNSRFDGPDSRARQLSAALNYLRTSSPSAVRARLDANRLAVAGHSMGGGGTLRIAEQNPSLKAAVPLTPWHPDKTFNTSVPVLIVGAQADTVAPVSQHAIPFYQNLPSTTPKVYVELCNASHIAPNSPNAAISVYTISWMKLWVDNDTRYRQFLCNVNDPALCDFRTNNRHCQ [LCC-ICCG I6M]
Conditions	BHET released, [4] [mM]	PET hydrolysis product formed, [1]	PET hydrolysis product formed, [2]	terephthalic acid, [3] [mM]
PET substrate: aFilm, 60 °C, pH 4.5	0	0.0326	0	0.104
PET substrate: aFilm, 60 °C, pH 5.5	0.00212	0.147	0.0198	0.39
PET substrate: aFilm, 60 °C, pH 6.5	0	0.223	0.0378	0.499
PET substrate: aFilm, 60 °C, pH 7.5	0.0371	1.32	0.0723	2.85
PET substrate: aFilm, 60 °C, pH 8.5	0.00219	0.169	0.0336	0.541
PET substrate: aFilm, 60 °C, pH 9.5	0	0.577	0.0585	1.37
PET substrate: aFilm, 70 °C, pH 4.5	0	0	0	0
PET substrate: aFilm, 70 °C, pH 5.5	0.00615	0.105	0.0242	0.275
PET substrate: aFilm, 70 °C, pH 6.5	0	0.0963	0.057	0.246
PET substrate: aFilm, 70 °C, pH 7.5	0	0.788	0.149	1.37
PET substrate: aFilm, 70 °C, pH 8.5	0	0.0775	0.021	0.209
PET substrate: aFilm, 70 °C, pH 9.5	0	0.402	0.0849	1.33
PET substrate: cryPow, 60 °C, pH 4.5	0.00411	0.01995	0.0118	0.0328
PET substrate: cryPow, 60 °C, pH 5.5	0	0.0583	0.031	0.102
PET substrate: cryPow, 60 °C, pH 6.5	0	0.0726	0.0457	0.105
PET substrate: cryPow, 60 °C, pH 7.5	0	0.0808	0.035	0.116
PET substrate: cryPow, 60 °C, pH 8.5	0	0.0461	0.0317	0.0874
PET substrate: cryPow, 60 °C, pH 9.5	0	0.0598	0.0174	0.263
PET substrate: cryPow, 70 °C, pH 4.5	0	0	0	0
PET substrate: cryPow, 70 °C, pH 5.5	0	0.0302	0.0164	0.0482
PET substrate: cryPow, 70 °C, pH 6.5	0	0.05	0.0289	0.0691
PET substrate: cryPow, 70 °C, pH 7.5	0	0.122	0.0329	0.288
PET substrate: cryPow, 70 °C, pH 8.5	0	0.0495	0.0203	0.1
PET substrate: cryPow, 70 °C, pH 9.5	0	0.0468	0.0239	0.25
